# Measured values: patent US20250188176A1
# Positions count from the first letter of the chain named.
# B1: FJ2246MP07H09 (Fab, V domains shown)
# VH: EVQLVESGGDLVKPGGSLRLSCVASGFTFRDYAMTWVRQAPGKGLQWVSLINGSGGKTYYADAVKGRFTISRDNAKNTLYLQMNSLRAEDTAVYYCAVDRLTKTIRPQYYGLWSWGQGTLVTVSS
# VL: DIVMTQTPLSLSVSPGETASISCRSSQSLLYSIGYNYLDWYLQKPGQSPQGLIYLGSKRASGVPDRFSGSGSGTDFTLRISRVEANDTGVYYCMQGLQSPLTFGQGTKLEIKR
# B2: FJ2246MP07A10 (Fab, V domains shown)
# VH: B1 VH with I105V
# VL: B1 VL
# B3: FJ2246MP10H11 (Fab, V domains shown)
# VH: B1 VH with N52S, S114V
# VL: DIVMTQTPLSLSVSPGETASISCRSSQSLLYSIGYNYLDWYLQKPGQSPQGLIYLGSKRASGVPDRFSGSGSGTDFTLRISRVEANDTGVYYCMQGLHSPLSFGQGTKLEIK
# B4: FJ2246MP06C10 (Fab, V domains shown)
# VH: B1 VH with S114V
# VL: B1 VL
# B5: FJ2246MP06D11 (Fab, V domains shown)
# VH: B1 VH with S114V
# VL: B1 VL
# B6: FJ2246MP07A09 (Fab, V domains shown)
# VH: B1 VH with L112M
# VL: B1 VL
# B7: FJ2246MP06C02 (Fab, V domains shown)
# VH: B1 VH with S54D, G56S, T58V, S114V
# VL: B1 VL
# B8: FJ2246MP10H03 (Fab, V domains shown)
# VH: B1 VH with N52S, S114V
# VL: B3 VL with N86E, H98R
# B9: FJ2246MP10E12 (Fab, V domains shown)
# VH: B1 VH with N52S, S114V
# VL: B3 VL with N86E, H98Q
# B10: FJ2246MP06H07 (Fab, V domains shown)
# VH: B1 VH with S54T, S114A
# VL: B1 VL
# B11: FJ2246MP10A09 (Fab, V domains shown)
# VH: B1 VH with N52S, S114V
# VL: B3 VL with N86E
# B12: FJ2246MP10B12 (Fab, V domains shown)
# VH: B1 VH with N52S, S114V
# VL: B3 VL with S72N, N86E
# B13: FJ2246MP06E01 (Fab, V domains shown)
# VH: B1 VH with S114V
# VL: B1 VL
# B14: FJ2246MP07E01 (Fab, V domains shown)
# VH: B1 VH with N52S
# VL: B1 VL
# B15: FJ2246MP06A09 (Fab, V domains shown)
# VH: B1 VH with S54N, G56S, S114V
# VL: B1 VL
# B16: FJ2246MP06D01 (Fab, V domains shown)
# VH: B1 VH with T28P, I51V, G56S, S114V
# VL: B1 VL
# B17: FJ2246MP06F01 (Fab, V domains shown)
# VH: B1 VH with G56T, S114V
# VL: B1 VL
# B18: FJ2246MP05F12 (Fab, V domains shown)
# VH: B1 VH with T28P, S114V
# VL: B1 VL
# B19: FJ2246MP06G08 (Fab, V domains shown)
# VH: B1 VH with S54N, G56S, S114V
# VL: B1 VL
# B20: FJ2246MP06E12 (Fab, V domains shown)
# VH: B1 VH with S54N, S114V
# VL: B1 VL
# B21: FJ2246MP10A10 (Fab, V domains shown)
# VH: B1 VH with N52S, S114V
# VL: B3 VL with N86E, S102T
# B22: FJ2246MP10B02 (Fab, V domains shown)
# VH: B1 VH with N52S, S114V
# VL: B3 VL with S102T
# B23: FJ2246MP06H01 (Fab, V domains shown)
# VH: B1 VH with S54D, G55A, G56S, S114V
# VL: B1 VL
# B24: FJ2246MP05A03 (Fab, V domains shown)
# VH: B1 VH with F27L, T28P, T35A, N52S, S114V
# VL: B1 VL
# B25: FJ2246MP06C01 (Fab, V domains shown)
# VH: B1 VH with S54N, S114V
# VL: B1 VL
# B26: FJ2246MP10D01 (Fab, V domains shown)
# VH: B1 VH with N52S, S114V
# VL: B3 VL with N86D, H98Q
# B27: FJ2246MP10B07 (Fab, V domains shown)
# VH: B1 VH with N52S, S114V
# VL: B3 VL with N86E, S102T
# B28: FJ2246MP06D12 (Fab, V domains shown)
# VH: B1 VH with S54N, G55S, S114V
# VL: B1 VL
# B29: FJ2246MP10G04 (Fab, V domains shown)
# VH: B1 VH with N52S, S114V
# VL: B3 VL with N86E, H98Q
# B30: FJ2246MP10F04 (Fab, V domains shown)
# VH: B1 VH with N52S, S114V
# VL: B3 VL with Q27K, N86D, S102T
# B31: FJ2246MP10G07 (Fab, V domains shown)
# VH: B1 VH with N52S, S114V
# VL: B3 VL with N86D, S102T
# Molecular target: canine IL-4RA (construct not given) (canine)
# Experiment: SPR, IL-4RA immobilised, periplasmic Fab
Binder,Improvement over parental [fold],RU max [RU],koff [s⁻¹]
B1,5.4,509,5.23e-05
B2,3.4,614,8.18e-05
B3,2.8,261,9.9e-05
B4,2.1,135,0.000133
B5,2.1,146,0.000132
B6,4.2,252,6.73e-05
B7,2.2,272,0.000126
B8,2.2,243,0.000126
B9,2,251,0.000139
B10,3.7,568,7.5e-05
B11,3.1,437,8.91e-05
B12,3,304,9.41e-05
B13,2.4,152,0.000119
B14,2.1,423,0.000135
B15,2.6,152,0.000106
B16,3.6,323,7.72e-05

Binder,Improvement over parental [fold],RU max [RU],koff [s⁻¹]
B17,2.5,199,0.000112
B18,3.2,208,8.83e-05
B19,3.1,199,9.01e-05
B20,2.9,127,9.66e-05
B21,2.2,369,0.000126
B22,2.2,202,0.000127
B23,2.6,225,0.000106
B24,2.3,400,0.000124
B25,2.3,160,0.000122
B26,2,283,0.000137
B27,2.2,252,0.000125
B28,2.7,154,0.000102
B29,2.1,251,0.000134
B30,3.1,292,9.16e-05
B31,2.5,372,0.000111
